Experimental data from patent US20250145690A1 (US Dept. of Health and Human Services, published 2025).

T1: MERS-CoV spike protein (MERS-CoV, UniProt K9N5Q8 18-1291)
T1 sequence: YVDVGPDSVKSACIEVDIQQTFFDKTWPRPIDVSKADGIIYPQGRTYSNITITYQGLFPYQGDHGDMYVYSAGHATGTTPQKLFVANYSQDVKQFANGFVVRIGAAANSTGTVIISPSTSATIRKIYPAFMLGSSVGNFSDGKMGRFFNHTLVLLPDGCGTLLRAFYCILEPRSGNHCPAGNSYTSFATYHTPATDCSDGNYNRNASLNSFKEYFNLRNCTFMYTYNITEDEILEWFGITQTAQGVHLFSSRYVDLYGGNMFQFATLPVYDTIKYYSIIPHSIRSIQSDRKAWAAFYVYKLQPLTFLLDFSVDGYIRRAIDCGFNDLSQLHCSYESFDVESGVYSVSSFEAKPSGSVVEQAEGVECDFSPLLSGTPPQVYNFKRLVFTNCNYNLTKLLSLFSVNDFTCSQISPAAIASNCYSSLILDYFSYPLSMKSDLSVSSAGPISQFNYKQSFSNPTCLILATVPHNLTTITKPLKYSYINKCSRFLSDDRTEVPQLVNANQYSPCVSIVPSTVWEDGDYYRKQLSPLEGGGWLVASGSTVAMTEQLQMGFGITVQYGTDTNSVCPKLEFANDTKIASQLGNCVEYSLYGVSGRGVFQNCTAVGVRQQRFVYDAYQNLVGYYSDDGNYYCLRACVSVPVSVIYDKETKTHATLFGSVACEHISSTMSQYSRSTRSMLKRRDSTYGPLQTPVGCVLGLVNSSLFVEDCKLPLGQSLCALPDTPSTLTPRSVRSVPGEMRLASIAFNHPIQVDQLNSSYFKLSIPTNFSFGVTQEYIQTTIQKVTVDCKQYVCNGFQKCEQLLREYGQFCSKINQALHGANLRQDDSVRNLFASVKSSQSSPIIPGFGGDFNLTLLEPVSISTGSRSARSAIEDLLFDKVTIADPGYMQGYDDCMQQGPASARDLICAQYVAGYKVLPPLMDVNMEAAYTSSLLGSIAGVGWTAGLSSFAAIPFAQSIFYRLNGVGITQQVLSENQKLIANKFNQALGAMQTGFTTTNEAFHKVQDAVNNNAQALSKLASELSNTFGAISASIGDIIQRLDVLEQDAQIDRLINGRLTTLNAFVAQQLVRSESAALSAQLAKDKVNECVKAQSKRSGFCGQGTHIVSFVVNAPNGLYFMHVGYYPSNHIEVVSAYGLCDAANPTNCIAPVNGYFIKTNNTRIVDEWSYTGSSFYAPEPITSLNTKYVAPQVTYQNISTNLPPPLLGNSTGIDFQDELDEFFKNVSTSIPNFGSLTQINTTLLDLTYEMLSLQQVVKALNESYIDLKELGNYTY

T2: HCoV-HKU1 spike protein (Sino Biological 40606-V08B) (HCoV-HKU1, UniProt Q0ZME7 13-1295)
T2 sequence: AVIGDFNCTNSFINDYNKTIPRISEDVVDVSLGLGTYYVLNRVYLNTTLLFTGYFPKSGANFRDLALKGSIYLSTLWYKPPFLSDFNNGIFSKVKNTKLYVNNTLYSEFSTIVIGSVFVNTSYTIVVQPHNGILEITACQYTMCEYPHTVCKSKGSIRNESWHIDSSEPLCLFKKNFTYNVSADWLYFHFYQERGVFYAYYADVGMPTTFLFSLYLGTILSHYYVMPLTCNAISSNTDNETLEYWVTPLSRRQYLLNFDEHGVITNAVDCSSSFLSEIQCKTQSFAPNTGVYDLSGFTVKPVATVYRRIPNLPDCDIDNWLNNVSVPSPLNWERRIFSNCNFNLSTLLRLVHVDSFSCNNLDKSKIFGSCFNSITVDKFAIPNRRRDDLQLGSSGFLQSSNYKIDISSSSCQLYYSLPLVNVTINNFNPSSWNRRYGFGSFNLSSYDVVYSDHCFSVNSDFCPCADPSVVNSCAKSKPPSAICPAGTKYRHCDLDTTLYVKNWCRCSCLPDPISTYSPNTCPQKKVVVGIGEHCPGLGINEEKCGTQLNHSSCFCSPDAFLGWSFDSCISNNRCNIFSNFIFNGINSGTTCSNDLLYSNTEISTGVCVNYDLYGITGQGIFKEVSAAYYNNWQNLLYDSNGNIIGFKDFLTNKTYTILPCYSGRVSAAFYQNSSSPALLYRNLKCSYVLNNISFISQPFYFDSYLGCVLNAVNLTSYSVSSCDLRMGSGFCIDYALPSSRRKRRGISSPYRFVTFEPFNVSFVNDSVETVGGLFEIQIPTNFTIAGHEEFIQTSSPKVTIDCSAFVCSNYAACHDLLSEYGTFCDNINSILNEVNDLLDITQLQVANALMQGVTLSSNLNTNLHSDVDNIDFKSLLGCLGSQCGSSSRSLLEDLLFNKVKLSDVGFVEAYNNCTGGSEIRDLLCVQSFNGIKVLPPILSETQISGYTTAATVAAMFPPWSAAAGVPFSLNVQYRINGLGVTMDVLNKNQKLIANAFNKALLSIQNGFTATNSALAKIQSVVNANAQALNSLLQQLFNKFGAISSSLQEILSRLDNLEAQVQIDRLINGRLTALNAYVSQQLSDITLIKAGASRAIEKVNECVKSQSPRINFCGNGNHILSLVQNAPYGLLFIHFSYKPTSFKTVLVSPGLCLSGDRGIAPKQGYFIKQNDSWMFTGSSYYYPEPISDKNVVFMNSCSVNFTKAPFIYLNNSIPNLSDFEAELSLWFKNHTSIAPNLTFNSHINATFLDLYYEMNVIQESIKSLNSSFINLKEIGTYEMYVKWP


molecular target: T1, MERS-CoV spike protein; assay: bead flow cytometry, AUC minus CD4

| Binder | binding result |
| --- | --- |
| COV57-38 (antibody, V domains shown) VH: QVQLVESGGGVVQPGRSLRLSCEASGFNFNNYGMHWVRQAPGKGLEWVAVISYEGSKKYYEDSVRGRFTISRDFSKNTLYLQMNSLRAEDTAVYYCAKANEIFWLGQFKNDALDFWGQGTMVTVSS VL: QSVLTQPPSASGTPGQRVAVSCSGSSSNIGTNFVNWYQHLPRTAPKLLIYRDNQRPSGVPDRFSGSKSGTSASLAISGLQSEDEADYYCAVWDDSLNGQVFGGGTKVTVL | no binding (tested: 200 µg/mL) |
| COV77-09 (antibody, V domains shown) VH: EVQLVESGGGLVQPGRSLTLSCSGSGFTFGDYSMSWVRQAPGKGLEWLGFIRSQTYGGTTQYAASVQGRFTILRDDSKSIAYLQMNSLKTEDTAVYYCTRNYGVGDYWGQGTLVTVSS VL: DIVMTQSPASLAVSLGERATIHCRSSLSVLNSSNNKNYLAWYQQKAGQPPKLLMYWASTRESGVPERFSGSGSGTDFTLTISSLEAGDVAVYYCQQYYDKLSLTFGGGTKVEIK | no binding (tested: 200 µg/mL) |
| COV57-34 (antibody, V domains shown) VH: QVQLVQSGTEVKKPGSSVKVSCRASGGTLSSYSVSWVRQAPGQGLEWMGRIIPILDKKTYAQKYQGRVTIIADTSTSTVYMELSSLKSDDSAVYYCTTFDYDTSGQRDQHDYWGQGTPVTVSS VL: not shown | no binding (tested: 200 µg/mL) |
| COV57-13 (antibody, V domains shown) VH: QVQLVQSGTEVKKPGSSVKVSCRASGGTLSSYSVSWVRQAPGQGLEWMGRIIPILDKKTYAQKYQGRVTIIADTSTSTVYMELSSLKSEDSAVYYCTTFDYDTSGQRDQHDYWGQGTLVTVSS VL: not shown | no binding (tested: 200 µg/mL) |
| COV49-54 (antibody, V domains shown) VH: EVQLVESGGGLVQPGGSLRLSCAASGFIVSSNYMSWVRQAPGKGLEWVSMIYSGGSTVYADSVKGRFTISRDISKNTLYLQMNSLRAEDTAVYYCALETFDYWGQGTLVTVSS VL: DIQMTQSPSSLSASVGDRVTITCRASQGITNHLAWYQQKPGKVPKLLIYAASTLQSGVPSRFSGSGYGTDFTLTISSLQPEDVASYYCQKYDSAPRTFGQGTKVEIK | no binding (tested: 200 µg/mL) |

molecular target: T2, HCoV-HKU1 spike protein (Sino …); assay: bead flow cytometry, AUC minus CD4

| Binder | binding result |
| --- | --- |
| COV44-37 (antibody, V domains shown) VH: QVQLVQSGAEVKKPGASVMLSCRASGYTFINDYMHWVRQAPGEGFEWMGIINPTGDGTKFAQKFQGRVTMTRDSSTTTVHMELRSLTSGDTAVYFCATGGRQSAFDIWGQGTVVIVSS VL: DIVMTQSPLSLPVTPGESASISCRSSQSLLQNNGYNYLDWYLQKPGQSPQLLIYLGSYRASGVPDRFSGSGSGTDFTLKISRVEAEDVGVYYCVQAQQAPPLYTFGQGTKLQIK | no binding (tested: 200 µg/mL) |
| COV44-74 (antibody, V domains shown) VH: QVQLVQSGAEVKKPGASVKVSCKASGYTFSSYYMNWVRQAPGQGLEWVGLISPSAGYTAYAQMFQGRVTMTRDTSTSTVYMELSSLRSEDTAVYYCARVAVAGPNDYWGQGTLVTVSS VL: EIVLTQSPGTLSLSPGERATLSCRASQSISSSYLAWYQQKPGQAPRLVILAASTRATGIPDRFSGSGSGTDFTLTISRLEPEDFALYYCQHYRSSPPLWTFGQGTKVEIR | no binding (tested: 200 µg/mL) |
